The values that follow come from US20220143140A1, “ANTI-CD6 ANTIBODY COMPOSITIONS AND METHODS FOR TREATING LUPUS” (Equillium, Inc., priority 2019, published 2022).

The test system of the experiment is subjects with active lupus nephritis. The experiment in a line: Clinical trial: urinary soluble CD6 and soluble ALCAM before and after EQ001. The experiment is classed as in vivo, human. As for the experimental part:
30 ml of urine is collected from a patient (or control individual) and treated with a protease inhibitor cocktail tablet on ice (MiliporeSigma, Burlington, Mass., USA) according to manufacturer's instructions. The sample is centrifuged at 10,000×g for 1 min or 5,000×g for 2 min, and the urine is removed from any pellet, aliquoted, and quick frozen in a dry ice/methanol bath and stored at −80° C. until use.
Several suitable ELISA kits are available commercially and are suitable for use in detecting soluble ALCAM and soluble CD6. For example, human ALCAM DuoSet ELISA (R&D Systems, Minneapolis, Minn.) is utilized according to the manufacturer's instructions to measure soluble ALCAM in a urine sample, and quantification is performed by generating a standard curve. Human CD6 ELISA kit (Sandwich ELISA)(LifeSpan BioSciences, Inc, Seattle, Wash.) is utilized according to the manufacturer's instructions to measure soluble CD6 in a urine sample, and quantification is performed by generating a standard curve.
In order to determine whether high urinary levels of soluble CD6 and soluble ALCAM can be used as a biomarker for sensitivity to treatment with EQ001, a clinical trial is performed in which concentrations of these markers are analyzed in the urine of subjects with active lupus nephritis before and after treatment with EQ001.
Urine samples are collected from the subjects biweekly for 2-3 months to establish individual baseline urinary soluble CD6 and soluble ALCAM concentrations. Treatment is initiated after at least five baseline measurements are obtained. Subjects receive EQ001 or vehicle administered intravenously every two weeks for a total of 5 doses, and a urine sample is collected 3 days after initial dosing, and twice weekly thereafter over the course of the study, which continues for 20 weeks post-initial treatment.
As described above, immediately after collection, samples are treated, aliquoted, and frozen in accordance with the above method, and upon the completion of the study, samples are tested by ELISA.

Where [1] appears, read: Cohort 4, active lupus nephritis, iv every two weeks, 5 doses, ELISA.

B1: EQ001: itolizumab, humanized anti-CD6 antibody, produced in CHO cells; VH/VK SEQ ID NOS: 1 and 2 (antibody, V domains shown)
VH: EVQLVESGGGLVKPGGSLKLSCAASGFKFSRYAMSWVRQAPGKRLEWVATISSGGSYIYYPDSVKGRFTISRDNVKNTLYLQMSSLRSEDTAMYYCARRDYDLDYFDSWGQGTLVTVSS
VL: DIQMTQSPSSLSASVGDRVTITCKASRDIRSYLTWYQQKPGKAPKTLIYYATSLADGVPSRFSGSGSGQDYSLTISSLESDDTATYYCLQHGESPFTLGSGTKLEIK
modifications: Made in Lab - synthesized VH amino acid sequence; Made in Lab - synthesized VK amino acid sequence
Turning to B1, under setting [1], the “urinary soluble ALCAM levels” value is “significant decreases” and the “urinary soluble CD6 levels” value is recorded as “significant decreases”. Moreover, the “response to treatment by basal soluble CD6 and soluble ALCAM” value (subjects with the highest basal levels) is “respond most dramatically”.
